In publication PMC3483176, “Structural Insight into the Clostridium difficile Ethanolamine Utilisation Microcompartment” (PLoS ONE, 2012):

B1: CD1908, C-terminal His6 tagged (CD1908-His) (natural protein, Clostridium difficile 630, UniProt Q187M0 1-116, looked up)
chain: MTEESKQRVIQEYVPGKQVTLAHIIANPNEDIYKKLGLVLDKKDAIGILTITPSEASIIAADVATKASNVSLGFIDRFSGSVVISGDVSSVESALNDVLEVLGNMLNFSSTKITRT
notes: CD1908, EutS homologue, BMC shell protein of the eut operon of Clostridium difficile 630; full length open reading frame amplified from genomic DNA (genome positions 2209853-2210203); Cloned between NcoI and XhoI of pET28b; also called EutS; C. difficile EutS homologue; source: E. coli B834 (DE3), purified (HisTrap, Superdex S200 size exclusion); not shown: His6, C-terminal, kept
B2: CD1918, C-terminal His6 tagged (CD1918-His) (natural protein)
chain: MASANALGMIETKGLVGAIEAADAMVKAANVQLVGKEQVGGGLVTVMVRGDVGAVKAATDAGAAAAERVGELISVHVIPRPHFEVDAILPKVSAE
notes: CD1918, EutM homologue, BMC shell protein of the eut operon of Clostridium difficile 630; full length open reading frame amplified from genomic DNA (genome positions 2219567-2219854); Cloned between NcoI and XhoI of pET28b; the XhoI site probably adds Leu-Glu before the His6 tag (surmised); also called EutM; C. difficile EutM homologue; source: E. coli B834 (DE3), purified (HisTrap, Superdex S200 …)

Key:
[1] = molecular target: the molecule itself; assay: crystal structure; CD1908-His at 10 mg/ml in Milli-Q H2O, sitting drop, 24% (w/v) PEG 1500, 20% (v/v) glycerol; space group H 3; two molecules in the asymmetric unit, hexamer by the crystallographic 3-fold axis; oligomerisation states calculated with PISA
[2] = molecular target: the molecule itself; assay: crystal structure; CD1918-His at 10 mg/ml in Milli-Q H2O, sitting drop, 200 mM Li2SO4, 100 mM phosphate/citrate buffer pH 4.2, 20% (w/v) PEG 1000; space group I 1 2 1; three chains in the asymmetric unit, hexamer by a crystallographic 2-fold axis; oligomerisation states calculated with PISA

Row | Protein | stoichiometry N [1] | stoichiometry N [2]
1 | B1 | 6 | –
2 | B2 | – | 6
